US20240288416A1 (RIJKSUNIVERSITEIT GRONINGEN, published 2024)

Molecular target: T1, artificial PA28-nanopore
T1 construct: also called PA-nanopore; PA nanopore
Test: single-channel electrical recording in a planar lipid bilayer, 1 M NaCl

B1: 20S proteasome from Thermoplasma acidophilum (enzyme)
chain 1: MQQGQMAYDRAITVFSPDGRLFQVEYAREAVKKGSTALGMKFANGVLLISDKKVRSRLIEQNSIEKIQLIDDYVAAVTSGLVADARVLVDFARISAQQEKVTYGSLVNIENLVKRVADQMQQYTQYGGVRPYGVSLIFAGIDQIGPRLFDCDPAGTINEYKATAIGSGKDAVVSFLEREYKENLPEKEAVTLGIKALKSSLEEGEELKAPEIASITVGNKYRIYDQEEVKKFL
chain 2: TTTVGITLKDAVIMATERRVTMENFIMHKNGKKLFQIDTYTGMTIAGLVGDAQVLVRYMKAELELYRLQRRVNMPIEAVATLLSNMLNQVKYMPYMVQLLVGGIDTAPHVFSIDAAGGSVEDIYASTGSGSPFVYGVLESQYSEKMTVDEGVDLVIRAISAAKQRDSASGGMIDVAVITRKDGYVQLPTDQIESRIRKLGLIL
notes: also called the proteasome; T. acidophilum proteasome
binding result: no binding
